B1: Single-chain WFIKKN2-His6 (other)
chain: LPPIRYSHAGICPNDMNPNLWVDAQSTCRRECETDQECETYEKCCPNVCGTKSCVAARYMDVKGKKGPVGMPKEATCDHFMCLQQGSECDIWDGQPVCKCKDRCEKEPSFTCASDGLTYYNRCYMDAEACSKGITLAVVTCRYHFTWPNTSPPPPETTMHPTTASPETPELDMAAPALLNNPVHQSVTMGETVSFLCDVVGRPRPEITWEKQLEDRENVVMRPNHVRGNVVVTNIAQLVIYNAQLQDAGIYTCTARNVAGVLRADFPLSVVRGHQAAATSESSPNGTAFPAAECLKPPDSEDCGEEQTRWHFDAQANNCLTFTFGHCHRNLNHFETYEACMLACMSGPLAACSLPALQGPCKAYAPRWAYNSQTGQCQSFVYGGCEGNGNNFESREACEESCPFPRGNQRCRACKPRQKLVTSFCRSDFVILGRVSELTEEPDSGRALVTVDEVLKDEKMGLKFLGQEPLEVTLLHVDWACPCPNVTVSEMPLIIMGEVDGGMAMLRPDSFVGASSARRVRKLREVMHKKTCDVLKEFLGLHHHHHHH

Tests used:
myostatin (R&D Systems) [1] = biological target: myostatin (R&D Systems) (UniProt O14793); assay: cell-based or functional assay
myostatin (R&D Systems) [2] = biological target: T1, myostatin (R&D Systems) (UniProt O14793 267-375); assay: cell-based or functional assay
T1 sequence (looked up): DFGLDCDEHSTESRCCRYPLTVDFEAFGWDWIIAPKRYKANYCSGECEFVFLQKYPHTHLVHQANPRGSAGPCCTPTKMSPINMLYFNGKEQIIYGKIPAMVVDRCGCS

Molecule	IC50 (nM), inhibition of myostatin signaling, pGL3(CAGA)12 reporter gene assay in A204 cells (myostatin (R&D Systems) [1]) [nM]	IC50 (nM), inhibition of myostatin signaling, pGL3(CAGA)12 reporter gene assay in A204 cells (myostatin (R&D Systems) [2]) [nM]
Dual-arm WFIKKN2-G1Fc (from UniProt Q8TEU8 35-576) (Fc fusion)	> 100	–
Single-arm WFIKKN2-G1Fc (from UniProt P0DOX5 209-449) (Fc fusion)	2.9	–
B1	–	1.4

Source: patent US20180305427A1 (ACCELERON PHARMA, published 2018)
